Data: the nanobody polyreactivity screen of Harvey et al. (2022)

Test: yeast display, Sf9 membrane polyspecificity reagent, FACS + sequencing; frameworks hold sequencing errors
Outline: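 Synthetic nanobody libraries on Saccharomyces cerevisiae BJ5465 were galactose-induced for 36–48 hours, stained 1 hour at 4 °C with 10% biotinylated, detergent-solubilized Sf9 membrane reagent and enriched on streptavidin microbeads. FACS then separated cells into low and high (top ~1%) gates by anti-HA (expression) and streptavidin (reagent binding) fluorescence. Genes were colony-PCR amplified, MiSeq 2 × 250 sequenced and CDR-length filtered. A clone's polyreactivity label is that of its gate of origin.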

| Sequence | polyreactivity (PSR sort gate) |
| --- | --- |
| QVQLVESGGGLVQAGGSLRLSCAASGRIFGVYGMGWYRQAPGKERELVAAITISGRTNYADSVKGRFTISRDNAKNTVYLQMNSLKPEDTAVYYCAAEKRKLFQGVARYRYEYWGQGTQVTVSS | low polyreactivity |
| QVQLVESGGGLVQAGGTLRLSCAASGSIFRYYAMGWYRQAPGKERELVATITSTGGSTYYADSVKGRFTISRDNAKNTVYLQMNSLKPEDTAVYYCAARNKWYVTVRGYYLSGFWGQGTQVTVSS | high polyreactivity |
| QVQLVESGGGLVQAGGSLRLSCAAYGRIFGGYAMGWYRQAPGKERELVAAISRRGGSTYYADSVKGRFTISRDNAKNTVYLQMNSLKPEDTAVYYCNAVLSVQARLTRVDYDYWGQGTEVTVSS | high polyreactivity |
| QVQLVESGGGLVQAGGSLRLSCAASGLIFYYYAMGWYRQAPGKERELVAAITWTAGSTSYADSVKGRFTISRDNAKNTVYLQMNSLKPEDTAVYYCAADYRHDTFSNEYDYWGQGTQVTVSS | low polyreactivity |
| QVQLVESGGGLVQAGGSLRLSCAASGSILYYYTMGWYRQAPGQDRELVAAITSSGGSTYYADSVKGRFTISRDNATKTVYLQMNSLKPEDTAVDYCNVDSGRSYRVARYDYWGQGTQVTVSS | low polyreactivity |
| QVQLVESGGGLVQAGGSLRLSCAASGRTSYVYAMGWYRQAPGKERELVASITGSAGSTYYADSVKGRFTISRDNAKNTVYLQMNSLKPEDTAVYYCAVLRWRSWSSPGYYWGQGTQVTVSS | high polyreactivity |
| QVQLVESGGGLVQAGGSLRLSSAASGSTFTAYAMGWYRQAPGTERELVAAISRSRGRTYYADSVKGRFTISRDNAKYTVYLEMISLKPEDTAVLYCNARGGSDGDYWGQGTQVTVSS | high polyreactivity |
| QVHLVESGGGLVQAGGSLRLSCAASGRIFGFYAMALYRQSPGKEREFVASISVRGASTYADSVKGRFTISRDNAKNTVYLQMNSLKPEDTAVYYCNAYGRVSKRYGYWGQGTQVTVSS | high polyreactivity |
| QVQLVESGGGLVQAGGSLRLSCAASGSIFASYAMGWYRQAPGKERELVAAISRRAVRTYYADSVKGRFTISRDNAKNTVYLQMNSLKPEDTAVYYCNATRGQYVGRYYYWGQGTQVTVSS | high polyreactivity |
| QVQLVESGGGLVQAGGSLRLSCAASGRTFTGNTMGWYRQAPGKERELVAAITKRGGSTYYADSVKGRFTISRDNAKNTVYLQMNSLKPEDTAVYYCAATSGVYRVGIIKYDYWGQGTQVTVSS | high polyreactivity |
| QVQLVESGGGLVQAGGSLRLSCAASGRTFYPNAMGWYRQAPGKERELVAAITTDGSTYYADSVKGRFTISRDNAKNTVYLQMNSLKPEDTAVYYCAARGFWWPYTYYYWGHGTQVTVSS | high polyreactivity |
| QVQLVESGGGLVQAGGSLRLSCAASGRIFTKNTKGWYRQAPGKERELVAAIRSRAGSTYYADSVKGRFTISRDNAKNTVYLQMNSLKPEDTAVYYCAVPWFRSVDFDYWGQGTQVTVSS | low polyreactivity |
| QVKLVESGGGLVQAGGILRLSCAASGSIIVGNPMGWYRQAPGKERELVAAISRSGGSTYYADSVKGRFTISRDIAKNTVYLQMNSLKPEDTEVYYCASVRKQASGVDYWGQGTQVPVSS | high polyreactivity |
| QVQLVESGGGLVQAGGSLRLSCAASVITFVFYAMGWYRQAPGKEREFVAGITWRGGRTYYADSVKGRFTISRDNAKNTVYLQMNSLKPEDTAVYYCNARSVVLTGGDYWGQGTQVTVSS | high polyreactivity |
| QVQLVESGGGLVQAGGSLRLSCAASGRIFSYYTMGWYRQAPGKERELVAAITSGDSTNYADSVKGRFTISRDNAKNTVYLQMNSLKPEDTAVYYCNARYSWWRSRVGSSHGPDGYWGQGTQVTVSS | high polyreactivity |
| QVQLVESGGGLVQAGGSLRLSCAASGRIFIFTYALGWYRQAPGKERELVAAITSSGGSTYYADSVKGRFTISRDNAKNTVYLQMNSLKPEDTAVYYCIAYSYYIVHFIRYEYWGQGTQVTVSS | high polyreactivity |
| QVQLVESGGGLVQAGGSLRLSCAASGRIFGYYAMGWYRQAPGKQRELVAAISWSGGRTYYADSVKGRFTISRDNAKNTVYLQMNSLKPEDTAVYYCNKVYRVPITEEYDYWGQGTQVTVSS | high polyreactivity |
